# B1: Hairpin Ribozyme (parent)
# chain: GUCCUCUUUCACGUGCGCGUGAAAGAGAGAAGUGAACCAGAGAAACACACGUUGUGGUAUAUUACCUGGUA
# Variants of: B1
# Assay: self-cleavage, relative activity (ratio to wild type); higher = more cleavage; co-transcriptional
row,Variant,self-cleavage
1,A43U G54A,0.128
2,A43U G54C,0.0498
3,A43G G68A,0.172
4,A43G G68U,0.092
5,A45U A64C,0.18
6,C46A G57U,0.123
7,A45C C46U,0.067
8,A45C C46A,0.152
9,A43G U53G,0.226
10,A47C A61U,0.137
11,C46G A59U,0.13
12,A44G C66G,0.15
13,A44C A64C,0.0397
14,A44C A64U,0.155
15,A44C A64G,0.141
16,C46G U63A,0.279
17,A44U C66U,0.222
18,A44U C66A,0.151
19,A44U U60C,0.103
20,C46G A49C,0.13
21,A47C G56U,0.149
22,A43U A71C,0.396
23,A45G U58A,0.174
24,A43U C66U,0.162

row,Variant,self-cleavage
1,A43U C66A,0.0293
2,A43G C48G,0.139
3,C46G C65A,0.174
4,A44C C66A,0.215
5,A44C C66U,0.107
6,A44C C66G,0.0764
7,A43U U70G,0.0463
8,A44C A59C,0.15
9,A44C A59G,0.158
10,A43U C65A,0.0905
11,C46G,0.15
12,C46U,0.149
13,C46A,0.148
14,A43G G69A,0.0947
15,A45U G54C,0.23
16,A45U G54A,0.138
17,A45U G54U,0.0699
18,A45G U67A,0.0776
19,A47C U53G,0.174
20,A47C U53C,0.192
21,A44C A47G,0.125
22,A44U U55C,0.168
23,A45G U53A,0.234
24,C46U G56C,0.204

row,Variant,self-cleavage
1,C46U G56A,0.138
2,A43U G51U,0.0946
3,A43U G51C,0.241
4,A43U G51A,0.247
5,A45U U55A,0.197
6,C46G A61U,0.157
7,C46G A61G,0.126
8,A43U C48A,0.206
9,A43G U60C,0.0979
10,A43C C46U,0.194
11,A45C A71G,0.154
12,C46U A61G,0.129
13,C46U A61C,0.0903
14,A45G A49C,0.103
15,A44C G56C,0.0706
16,A45C A64U,0.223
17,A45C A64C,0.138
18,A45G C50U,0.174
19,A45G C50A,0.123
20,A45G U70C,0.0703
21,A44G G54C,0.119
22,A45G A61C,0.142
23,C46G U62A,0.148
24,C46U U53A,0.215

row,Variant,self-cleavage
1,C46U U53G,0.216
2,C46U U63C,0.106
3,A45G U63G,0.226
4,A45G U63C,0.0324
5,A43U G57A,0.119
6,A43U G57U,0.152
7,A45G G54C,0.0826
8,C46A U62G,0.0929
9,A44G A59G,0.131
10,A44G U52C,0.223
11,A45U U63C,0.287
12,A45C G57C,0.105
13,A44C C48A,0.161
14,A44C C48G,0.151
15,A43C U60G,0.0932
16,A43C U60A,0.162
17,C46A A64U,0.255
18,C46A A64C,0.0755
19,C46A A64G,0.185
20,A43C C50A,0.162
21,A43C C50G,0.143
22,A45C U52G,0.0239
23,A45C U52C,0.176
24,A43C U63A,0.126

row,Variant,self-cleavage
1,A43U G56U,0.133
2,A43U G56C,0.0883
3,A44C G69C,0.141
4,A44C G69U,0.167
5,A47C A49C,0.204
6,A47C A49G,0.308
7,A44G G57A,0.123
8,C46A G69A,0.13
9,A45U A61G,0.184
10,C46A U52A,0.196
11,A45U U70G,0.24
12,A45U U70C,0.056
13,A45U U70A,0.0397
14,A47C C65G,0.203
15,A44U G56A,0.191
16,A47C A71C,0.72
17,A45G U55A,0.121
18,A44G U67C,0.145
19,A44U G54A,0.181
20,A45U G56U,0.208
21,A43C U52G,0.164
22,A43C U52C,0.109
23,A44U A59G,0.253
24,A44U A59U,0.0331

row,Variant,self-cleavage
1,C46G A71G,0.166
2,A43C U62C,0.129
3,A43U U60C,0.221
4,A43C G56A,0.13
5,A43C G56C,0.165
6,A43C G56U,0.141
7,A44C U58A,0.0929
8,A47C G51C,0.377
9,A43G U52A,0.202
10,A43G U52G,0
11,C46A G51U,0.146
12,C46A G51A,0.215
13,C46A U58A,0.198
14,C46A U58G,0.158
15,C46U U58C,0.221
16,A44U C50U,0.252
17,A45U G69U,0.197
18,A43G C46G,0.26
19,A45G C46A,0.17
20,A45G C46U,0.223
21,A45G U60G,0.187
22,A45G U60C,0.0993
23,C46U U70C,0.161
24,A45U C50G,0.146

row,Variant,self-cleavage
1,A45U U67G,0.131
2,C46U G68U,0.119
3,C46U G68A,0.0828
4,A44C U55A,0.0312
5,A44U C48A,0.124
6,A43U G69C,0.119
7,A43U G69A,0.119
8,A45C A59G,0.208
9,A44U A64U,0.203
10,A44U A64C,0.216
11,A45U C48U,0.135
12,A45U C48A,0.14
13,A43G C65G,0.117
14,C46U U62C,0.213
15,C46U U62G,0.237
16,A47C C66A,0.205
17,A45G G68U,0.223
18,A45G G68A,0.122
19,A44G U58C,0.0672
20,C46G U60G,0.151
21,C46G U60A,0.091
22,A45C A49U,0.202
23,C46U C66U,0.149

# Reference: the RNAGym collection of RNA variant scans (doi:10.7554/elife.80360)
